The text below walks through data of patent publication US7884189B2, “Carboxyltransferase domain of acetyl-CoA carboxylase” (The Trustees of Columbia University in the City of new York, priority 2003, dated 2011).

Substitutions are numbered along the chain they refer to. In names and notes the source's numbering stands. Where two headings read alike, the source gives them in different places.

A short description of series [1]: Kinetic parameters of wild-type and mutant yeast CT (reverse reaction, malonyl-CoA to biotin methyl ester). Type of series: biochemical, S. cerevisiae. The following applies: 2.5 μM of the enzyme. The source says: (§1) Enzyme kinetic assays. The CT domain can catalyze the decarboxylation of malonyl-CoA to produce acetyl-CoA in the presence of biotin methyl ester. The kinetic assays monitored the production of acetyl-CoA by coupling it to citrate synthase and malate dehydronase, which ultimately lead to the reduction of NAD^+ (Guchhait et al., 1974, J. Biol. Chem. […]). Mutations in the active site were designed based on the structural information. The mutants were made with the QuikChange kit (Stratagene) and sequenced for confirmation. They were purified and assayed kinetically under the same condition as the wild-type protein. The kinetic parameters for each enzyme were obtained by non-linear least-squares fitting to the initial velocity data.
To characterize the functional roles of the conserved residues in the active site, many of them were mutated and the kinetic parameters of the mutants for the reverse reaction, which transfers the carboxyl group of malonyl-CoA to biotin (Table D) were determined. […] Based on the structures of the invention, it is likely that this residue is important for recognizing the carboxyl group of malonyl-CoA, and this is also consistent with the hypothesis that the biotin substrate may be mostly associated with the C domain. Of the charged side chains that interact with the phosphate groups of CoA, mutation of Arg1731 gave rise to a 14-fold increase in the Km for malonyl-CoA (Table D), consistent with the structural observations. On the other hand, mutation of Arg2036 had minimal effects on the enzyme catalysis.
Mutagenesis and kinetic assays. The L1705I and V1967I single-site mutants as well as the L1705I/V1967I double mutant were made with the QuikChange kit (Stratagene), from the expression construct that covers residues 1476-2233. The mutants were sequenced, expressed in E. coli, and purified following the same protocol as that for thewild-type CT domain. The catalytic activity of the CT domain was assayed following protocols described earlier (Guchhait, R. B. et al. (1974) Acetyl coenzyme A carboxylase system from Escherichia coli. Purification and properties of the biotin carboxylase, carboxyltransferase, and carboxyl carrier protein components. J Biol Chem 249, 6633-6645; Zhang et al., 2003). […] The concentration of the malonyl-CoA substrate was kept close to the expected Km, 75 μM for the wild-type enzyme and 750 μM for the mutants. The wild-type enzyme was at 2.5 μM concentration, whereas the mutants were at 20 μM concentration.

The test system of the next series is ACC. Conditions: cited from earlier work.
The target of another series is T1, CT domain of yeast ACC (Saccharomyces cerevisiae, UniProt Q00955).
T1 construct: made in house; host or cells: E. coli (pET24d)
The series is described as follows: CT domain enzyme kinetic assay, inhibition (decarboxylation of malonyl-CoA coupled to citrate synthase and malate dehydrogenase). Type of series: biochemical, S. cerevisiae.

For series [2], the target named is T2, L1705I, V1967I and L1705I/V1967I mutants of the yeast CT domain (Saccharomyces cerevisiae, UniProt Q00955).
T2 construct: fused on or other part: C-terminal His-tag (pET24d)
In words: CT domain enzyme kinetic assay, inhibition of mutant CT domains. Type of series: biochemical, S. cerevisiae. Conditions: single and double mutants; malonyl-CoA 750 μM, mutants at 20 μM.
Source text: as §1
Mutagenesis and kinetic assays. The L1705I and V1967I single-site mutants as well as the L1705I/V1967I double mutant were made with the QuikChange kit (Stratagene), from the expression construct that covers residues 1476-2233. The mutants were sequenced, expressed in E. coli, and purified following the same protocol as that for thewild-type CT domain. […]

A further series deals with mammalian ACC2. The following applies: cited from earlier work.
Series [3] concerns the molecule itself. The series is described as follows: light scattering in solution (homodimer).

T1 sequence (Q00955 1429-2233): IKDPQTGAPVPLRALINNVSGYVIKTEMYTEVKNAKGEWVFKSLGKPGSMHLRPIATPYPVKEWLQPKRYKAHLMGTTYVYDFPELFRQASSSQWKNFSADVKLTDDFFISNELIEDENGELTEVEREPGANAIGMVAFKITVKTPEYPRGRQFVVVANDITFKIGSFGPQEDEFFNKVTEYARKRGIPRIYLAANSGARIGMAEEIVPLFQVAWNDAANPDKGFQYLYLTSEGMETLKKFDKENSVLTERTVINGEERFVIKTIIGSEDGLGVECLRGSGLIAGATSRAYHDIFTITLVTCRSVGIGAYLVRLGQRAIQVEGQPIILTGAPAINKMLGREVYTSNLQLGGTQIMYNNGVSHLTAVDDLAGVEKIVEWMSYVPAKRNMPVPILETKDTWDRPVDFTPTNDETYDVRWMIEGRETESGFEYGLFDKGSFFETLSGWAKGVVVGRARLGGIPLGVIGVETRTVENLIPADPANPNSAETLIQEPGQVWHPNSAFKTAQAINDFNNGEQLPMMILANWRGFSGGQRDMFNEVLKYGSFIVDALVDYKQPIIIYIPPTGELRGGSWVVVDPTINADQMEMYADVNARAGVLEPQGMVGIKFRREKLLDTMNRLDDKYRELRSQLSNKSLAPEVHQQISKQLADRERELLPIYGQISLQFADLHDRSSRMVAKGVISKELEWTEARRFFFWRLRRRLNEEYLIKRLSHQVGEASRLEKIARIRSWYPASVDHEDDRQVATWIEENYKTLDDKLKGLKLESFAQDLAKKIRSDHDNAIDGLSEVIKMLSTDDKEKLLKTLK
T2 sequence (Q00955 whole entry L1705I/V1967I, form open, the tested form may be a part): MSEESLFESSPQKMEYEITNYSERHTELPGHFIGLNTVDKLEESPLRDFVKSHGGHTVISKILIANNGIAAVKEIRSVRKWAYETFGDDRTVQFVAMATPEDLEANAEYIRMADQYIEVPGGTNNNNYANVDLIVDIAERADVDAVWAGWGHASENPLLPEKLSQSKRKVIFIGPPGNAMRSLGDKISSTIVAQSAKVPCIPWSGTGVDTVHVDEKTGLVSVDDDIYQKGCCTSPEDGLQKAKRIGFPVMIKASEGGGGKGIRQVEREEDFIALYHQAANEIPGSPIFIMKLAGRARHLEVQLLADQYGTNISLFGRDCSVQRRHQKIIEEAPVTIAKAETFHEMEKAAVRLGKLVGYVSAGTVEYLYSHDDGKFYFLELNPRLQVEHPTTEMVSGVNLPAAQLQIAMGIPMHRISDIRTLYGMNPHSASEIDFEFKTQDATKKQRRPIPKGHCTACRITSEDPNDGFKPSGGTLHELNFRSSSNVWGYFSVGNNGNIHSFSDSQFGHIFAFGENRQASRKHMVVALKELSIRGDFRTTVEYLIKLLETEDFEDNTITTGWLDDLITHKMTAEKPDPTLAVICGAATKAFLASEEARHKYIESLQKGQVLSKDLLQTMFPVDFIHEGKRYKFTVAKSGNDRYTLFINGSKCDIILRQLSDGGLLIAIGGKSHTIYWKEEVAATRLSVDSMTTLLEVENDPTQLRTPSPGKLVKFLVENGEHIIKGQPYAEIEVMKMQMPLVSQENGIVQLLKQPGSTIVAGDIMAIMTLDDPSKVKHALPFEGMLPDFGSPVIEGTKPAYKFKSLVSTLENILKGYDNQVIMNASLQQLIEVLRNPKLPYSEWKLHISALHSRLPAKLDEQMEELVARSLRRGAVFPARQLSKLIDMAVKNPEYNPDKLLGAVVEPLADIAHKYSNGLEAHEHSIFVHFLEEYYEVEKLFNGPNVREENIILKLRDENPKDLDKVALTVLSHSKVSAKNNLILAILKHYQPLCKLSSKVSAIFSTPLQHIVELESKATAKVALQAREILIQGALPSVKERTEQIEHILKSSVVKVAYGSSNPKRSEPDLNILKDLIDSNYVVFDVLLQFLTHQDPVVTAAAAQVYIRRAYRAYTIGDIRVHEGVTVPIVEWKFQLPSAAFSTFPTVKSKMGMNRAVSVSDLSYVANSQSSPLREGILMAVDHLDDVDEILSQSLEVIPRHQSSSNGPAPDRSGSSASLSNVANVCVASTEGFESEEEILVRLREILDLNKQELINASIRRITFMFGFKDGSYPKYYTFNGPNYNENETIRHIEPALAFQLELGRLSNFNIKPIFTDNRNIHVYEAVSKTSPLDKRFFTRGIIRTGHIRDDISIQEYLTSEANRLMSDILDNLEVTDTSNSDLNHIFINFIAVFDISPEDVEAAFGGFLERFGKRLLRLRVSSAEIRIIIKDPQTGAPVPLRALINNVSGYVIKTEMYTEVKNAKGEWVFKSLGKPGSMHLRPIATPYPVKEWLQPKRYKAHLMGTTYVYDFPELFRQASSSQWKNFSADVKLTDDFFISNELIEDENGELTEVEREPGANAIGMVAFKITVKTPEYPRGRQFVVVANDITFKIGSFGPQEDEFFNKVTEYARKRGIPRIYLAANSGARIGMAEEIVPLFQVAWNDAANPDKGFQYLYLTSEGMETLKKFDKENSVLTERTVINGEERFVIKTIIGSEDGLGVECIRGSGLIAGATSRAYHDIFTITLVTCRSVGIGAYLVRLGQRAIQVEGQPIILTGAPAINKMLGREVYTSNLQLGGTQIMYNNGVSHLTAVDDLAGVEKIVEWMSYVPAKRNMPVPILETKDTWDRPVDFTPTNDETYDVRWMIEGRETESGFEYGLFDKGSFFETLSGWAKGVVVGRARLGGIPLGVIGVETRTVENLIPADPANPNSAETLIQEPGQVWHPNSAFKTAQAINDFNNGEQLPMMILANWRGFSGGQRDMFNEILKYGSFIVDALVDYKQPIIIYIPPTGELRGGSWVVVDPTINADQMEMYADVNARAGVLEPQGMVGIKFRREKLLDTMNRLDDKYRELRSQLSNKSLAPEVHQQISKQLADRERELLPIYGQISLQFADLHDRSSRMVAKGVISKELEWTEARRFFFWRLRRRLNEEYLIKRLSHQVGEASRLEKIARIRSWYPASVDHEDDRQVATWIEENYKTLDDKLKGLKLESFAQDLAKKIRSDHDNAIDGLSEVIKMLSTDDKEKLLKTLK
Source text for CT domain of yeast ACC: The CT domain can catalyze the decarboxylation of malonyl-CoA to produce acetyl-CoA in the presence of biotin methyl ester. Thus, the enzyme kinetic assays monitor the production of acetyl-CoA by coupling it to citrate synthase and malate dehydrogenase, which ultimately lead to the reduction of NAD^+.
Enzyme kinetic assays. The CT domain can catalyze the decarboxylation of malonyl-CoA to produce acetyl-CoA in the presence of biotin methyl ester. The kinetic assays monitored the production of acetyl-CoA by coupling it to citrate synthase and malate dehydronase, which ultimately lead to the reduction of NAD^+ (Guchhait et al., 1974, J. Biol. Chem. 9:6633-6645).

The Km is the concentration of substrate that gives half-maximal velocity. For R2036E, in series [1], the Km was 41 ± 4 µM and the Vmax is recorded as 133 ± 3 ×10^−5 AU/s.
In the case of Y1738F, in series [1], the Km is 53 ± 6 µM and the Vmax is listed as 152 ± 3 ×10^−5 AU/s.
For E2026Q, in that order: 218 ± 24 µM and 144 ± 6 ×10^−5 AU/s.
The matching figures for R1731S: 909 ± 72 µM and 385 ± 10 ×10^−5 AU/s.
In the case of `CC(Oc1ccc(Oc2ncc(C(F)(F)F)cc2Cl)cc1)C(=O)SCCNC(=O)CCNC(=O)C(O)C(C)(C)COP(=O)(O)OP(=O)(O)OCC1OC(n2cnc3c(N)ncnc32)C(O)C1OP(=O)(O)O` (stereo not drawn) [CoA ester of haloxyfop], the “potency relative to haloxyfop” value in the series with ACC is reported as “more potent inhibitor”.
In the case of R1954S, in series [1], the Km is 5100 ± 1200 µM and the Vmax is listed as 39 ± 6 ×10^−5 AU/s.
The term Ki denotes the dissociation constant of the complex between target and ligand, obtained from inhibition or displacement. Regarding `CC(Oc1ccc(Oc2ncc(C(F)(F)F)cc2Cl)cc1)C(=O)O` (stereo not drawn) [haloxyfop], the inhibition constant (Ki) (at CT domain of yeast ACC; in series [2]) was approximately 500 µM in each case.
Usually IC50 stands for the concentration needed to halve the response being measured. Consider `O=C(c1c2ccccc2cc2ccccc12)N1CCC(N2CCC[C@@H](C(=O)N3CCOCC3)C2)CC1` [CP-640186], for which the IC50 with mammalian ACC2 was approximately 0.055 µM. At CT domain of yeast ACC (versus malonyl-CoA, about 3 μM of enzyme in the reaction buffer, read-out: Ki), the inhibition constant Ki is approximately 4 µM. For the same molecule, the mode of inhibition entry at CT domain of yeast ACC (with respect to malonyl-CoA) is on record as “non-competitive”.
Regarding E1994Q, in series [1], the Km was 109 ± 5 µM and the Vmax was 272 ± 3 ×10^−5 AU/s.

B1: L1705I/V1967I double mutant of the yeast CT domain (residues 1476-2233) (enzyme)
chain: GSMHLRPIATPYPVKEWLQPKRYKAHLMGTTYVYDFPELFRQASSSQWKNFSADVKLTDDFFISNELIEDENGELTEVEREPGANAIGMVAFKITVKTPEYPRGRQFVVVANDITFKIGSFGPQEDEFFNKVTEYARKRGIPRIYLAANSGARIGMAEEIVPLFQVAWNDAANPDKGFQYLYLTSEGMETLKKFDKENSVLTERTVINGEERFVIKTIIGSEDGLGVECIRGSGLIAGATSRAYHDIFTITLVTCRSVGIGAYLVRLGQRAIQVEGQPIILTGAPAINKMLGREVYTSNLQLGGTQIMYNNGVSHLTAVDDLAGVEKIVEWMSYVPAKRNMPVPILETKDTWDRPVDFTPTNDETYDVRWMIEGRETESGFEYGLFDKGSFFETLSGWAKGVVVGRARLGGIPLGVIGVETRTVENLIPADPANPNSAETLIQEPGQVWHPNSAFKTAQAINDFNNGEQLPMMILANWRGFSGGQRDMFNEILKYGSFIVDALVDYKQPIIIYIPPTGELRGGSWVVVDPTINADQMEMYADVNARAGVLEPQGMVGIKFRREKLLDTMNRLDDKYRELRSQLSNKSLAPEVHQQISKQLADRERELLPIYGQISLQFADLHDRSSRMVAKGVISKELEWTEARRFFFWRLRRRLNEEYLIKRLSHQVGEASRLEKIARIRSWYPASVDHEDDRQVATWIEENYKTLDDKLKGLKLESFAQDLAKKIRSDHDNAIDGLSEVIKMLSTDDKEKLLKTLK
notes: also called mutated yeast CT domain; mutant CT domain; not shown: C-terminal His-tag of the parent pET24d construct
As to B1, the binding result in series [3] is “binds”.

B2: L1705I (protein)
chain: B1 chain with I492V
modifications: left off: small tags and cut ends
For B2, in series [1], the Km was 1340 ± 180 µM and the Vmax is given as 12 ± 0.3 ×10^−5 AU/s.
